In the DeepSol protein solubility set:

Test: soluble on expression in E. coli; label from the status in PepcDB or PDB records

Sequence | soluble on expression in E. coli
MSLAANPWNWFGSSTKVSEQGVGELTASTPLQEQAIADALDGDYRLRSGMKTANGNVVRFFEVMKGDNVAMVINGDQGTISRIDVLDSDIPADTGVKIGTPFSDLYSKAFGNCQKADGDDNRAVECKAEGSQHISYQFSGEWRGPEGLMPSDDTLKNWKVSKIIWRREGHHHHHH | soluble
MGSDKIHHHHHHMTEKWLSIVGIGEDGLQGLSAIARSLVDRAKVIVGGDRHLAMLPTDDQREKIVWTSPISISVDEIIQRRGQSICVLASGDPMCYGIGVTLMRRIPVSEMTIIPAPSAFSLACARMGWSLTEVETLSLNGRPSSLLQSYIYPKARLLILSGGKDTPAIVAKILTNRGYGGSEITVLERMGGTHERIVEGTAASWSETEVAALNAIAVYCIADAGVIPLPRLPGLPDNAYHHDGQLTKREVRAITLAALAPTPGQLLWDVGAGCGSISIEWMRSNARCRAIAIEQNSSRLLYIADNAATLGTPNVQIIEGKAPHALKDLPAPDAIFIGGGVTATGLFDVCWEALRPGGRLVANVVTVEGEQTLFQWHERVGGDLTRVAIQRTEPIGKFLGWRAMAPVTQWVVVK | not soluble
MGSDKIHHHHHHQIAPAPSTGYNCDLALYSVPQANLLARSLQGDTVADQQYRQLVRELAMELRNCRQQVWPRKMAIWVRLYSCDLRPGGLDSLFDGLQALGYNEVFIETFYDGRVLLPAADNPTVWPSVVAEPGLERVDLLAEAIRKGRERGMSVYAWLFTLNYGYSYSQRSDRQDTLARNGRSESSLEIVSGGAQVFVDPFNPVARQDYQTLLRSVLSRRPDGVLFDYVRYPRGTGAASVMTKVADLLIHTTAARQAWINQLNTPAGQALLTEYLDTGRLSPSDRNQLVLLLGDRLKELNLRQDVDPLWSLAVYHAWRGVVEFVDEAVGTVAQAGLPSGAVFFPFGNARVGQQGWDSRMQPWDRFPNSMEYHPMSYALCGDRHDCVMAEVQRVLEAKPNSIVQPAIAGTWGANFNAHLPLEQRMAALRSTFGDRIDRVSHFSLAWMDPQGERQRQRCRL | not soluble
MAKVTGTKVITNQVRLSFVHVLEPHAMEEGQEKKYSCMLIIPKDDKETLKAMKEAIKTAYEGAKGDKLKGVKFERLKTTLRDGDEEMDTEERPEFENAMFINVSSKTKPQVVKREDGVLVKTDDPDEVYSGVYAIASINFYAYSTAGNKGVTAGLNNILTLCKGDFLGGRANAESDFGDLEWEDEEDDMFS | not soluble
ALENLQVEASCSVCLEYLKEPVIIECGHNFCKACITRWWEDLERDFPCPVC | soluble
GPGSMLRHAARCFSPRQCYVSPRVMEAEYAVRGLIPARADEIKADLATGHGTYSFESLVYCNIGNPQSVGQMPLTFYRQVMVLVDAPFLLEDAEIVARLPEDAVARARRYLSEIGTGTGAYTESFGFRFARAAVAAHINELDHGVSPAATVNDICLTDGASMGAKLFLQLLVGGASDAVMIPVPQYPLYSAQIALLGGVKVPYGLHESEGWVMKLSDLVAAYERCVTESGATPRLFVCINPGNPTGNVLERCVMEDVVRFCHERGMLLLADEVYQENVYDTRRRFLSFREVVLGMPEPYCSETMLVSLHSTSKGVIGECGRRGGYFCMTNLPAALRQQVVKLCSINLCANVNGQLMTALMCSPPREGEASYALHRREYDEIFTGMKERAELLARELGAVRGLSCQPVEGAMYAFPRIVLPERYAQRNEELNAKEGRQLALDARWALELLESSGIVVVPGSGFGQEPGTLHFRITILPPLEQIDRMVRAIREFQDRIYEQYA | soluble
MAIDFNAMPPSTWAENLARNQLSKLQTQLDTQTKSAKARTDALSQLQKALQDYKSSLATLTGKKSLVAMNAAATPDGMASVTAKGNAAAGNYSVFVEQLASSQQ | not soluble
MGSDKIHHHHHHAGCKTSKVVKTTPVEPAYLSSKLQLTVPNKNGSMTVSGSMKMKSGERIQLSVLMPVFRSEVMRMEVTPDEVLLIDRMNKRYVRATRDELKGILPENADFDRLEKLLFKASLPGEKKELTGRELGIPSLEKAKVRLSDFSTAEFELIPTEVSSRYTQVALEDLLKMLMKL | not soluble
MGSDKIHHHHHHMDLRDLTYFETIAELGHLGRAAEKLNRSQPALTKSIQRLEESFGTRLFQRDGRRIKLTPVGELLQARGKELQQSIAQTQREVRDFASGMVGNIRVGCAATMAEYLMPKLTSALLQRTPDVTFKLVIGQDDLLRESLRSGQLDMIICALAPDSDDVTSFAVLKDEAVVIASKHHPIFKTPLQMSDLCAYRWVLPPVSVSSRKWLDTTFAAHGLPLPTVQIEANSISLLPGLIAQSNLLSFVARESLEFGKTMQHLREVPLEQTTLKRTIGVTLRKGGYLSPAAEGMLQMLRDNGGDFLGWG | not soluble
ATHTAQTQTHLNFTQIKTVDELNQALVEAKGKPVMLDLYADWCVACKEFEKYTFSDPQVQKALADTVLLQANVTANDAQDVALLKHLNVLGLPTILFFDGQGQEHPQARVTGFMDAETFSAHLRDRQPHHHHHH | soluble
MHQQIIKFWFEELTPQNWFENNPELDKHIASRFASVLEQAARCELFNWRDSAQGRLAEIIVLDQFSRNVYRNTPKAFAQDPLALALAQEAIRLGHDQELAPEQLSFLYMPFMHSESRLIHVEAEKLFRASGLENNYDFELKHKAIIDQFGRYPHRNAILGRESTPEELAFLQQPGSSF | not soluble
AESGFRQHITANGESGFKAEPDRYHLYLSYACPWACRTLIMRKLKGLEKIISVSFSDPVMGKNGWSYGESGNETADHINHIHYLKELYLVARKDYTGRVTVPVLWDKKKKTIVNNESSEIMRMLNSEFNAFSSTDHDYYPKQWRQKIDEINQLVYENINN | not soluble
MAHHHHHHMAVAYVFDGAVLKQMSLEAGHPKFTVLDTPLCSDSAVTCFGKDEFYFINGSVPNVLRHFGGRSGCTEHFLPGPAHCLLVHRQKVYCCGVDCLYVFDPLGEEVETIELGQQIKELTAADHGFVFVNDRHELYAFHFTRGVKIVGTKGPVSKLLGHHNRYAVVLLDNGDVISVNEEAEVRENLFPLKIKERFVALDTGMTLALREDELALHMNGTWLCLDGFKGRELQFLGVPLTPAEDACTICFCDFEDGDGVRLDCGHPFHRDCLAEFSTHAKSFVEKGEHIVFTYAVCPSGCGTHIRHAAAPLSAYMNDLYRAVTKDAEGRLREMENKTLEDLYYYVCCRCEKPYYGGNRWCSRTISGEPCKKPSELICSDCNDDFLCPSHNHDFVLYKCRYCCNPATHLSFGNRYMCDACNKKWEGTEPEPMECPGAEKCPLGGAHPTGGSQPLGCMLCTLFDKCDAKHFFPPQ | not soluble
MFNCLTKLVILVCLKYVAKALLNRSTGLIMKDKPEGVHHIKSCSDSSSRIWYSLWMNIAFCGGLGPTSIFDPCFLTSSAPSPPSAPALAIPAAAPPLPTSVPAGAGVEAGAGAETVSSSLMIFSSFFLYN | soluble
MKACGIIVEYNPFHNGHRYHAQQARQQSGAEVVIAIMSGNFLQRGEPALLDKWARAEEALQNGVDLVIELPTAWSVQSADYFAKGGIKLLQALQCESLCFGTDSTSAIDYAAFGQFVQENQSLIDQTFHALTDKQLSYPQKMTAVFRQVYPESRFDFSSPNHILGMSYAKENATYPTPMTLYPIARKQAGFHDATISGKVASATAIRQSVFQQEITQVLPTVPSITAQHLQTQTMISWENYWPFLKYKIVQSSLEELQAIYQMTEGLEYRLKDQIQAAGSFHELMERMKTKRYTWTRLQRLATYILLNMTKEEVETVWQNSYLHVLGFTPKGQAYLKETKAQIQLPVISKVSKENRAMLSLDIRANQLYQMGDSSLKEQNFGRFPLRFSPDT | not soluble
MGSDKIHHHHHHMAEGSSSSSLTRLMSILDIFTETRPEWSSDDMMTELGYPRPTLYRYLKVLTDAGMLASNGHGIYTLGPKVVEMDHLLRLSDRLVAIGRPVVAQLTEQYACTAFLVRWYRNRLLCMHSETSLEAPLSSYPRGRVMPMNRGAIARTILAHLQSRKARKIIESFAPEGPEDARKAYIAEQAAALRSVRRNGYAIAFGEVTPGVVGVASPIFDEAAEPAGALCMTMRQEDCPHELRTLITQAVPAAANSITVTLRQSRHTGTDHTHLPLQEEVKDR | not soluble
MSQIIWGAYAQRNTEDHPPAYAPGYKTSVLRSPKNALISIAETLSEVTAPHFSADKFGPKDNDLILNYAKDGLPIGERVIVHGYVRDQFGRPVKNALVEVWQANASGRYRHPNDQYIGAMDPNFGGCGRMLTDDNGYYVFRTIKPGPYPWRNRINEWSPAHIHFSLIADGWAQRLISQFYFEGDTLIDSCPILKTIPSEQQRRALIALEDKSNFIEADSRCYRFDITLRGRRATYFENDLT | soluble
MAHCLHPEKFFPVVKSVALPPGSLNGKVALVTGGGTGLGKAIATTFAHLGASVAIAARRLDVLEKTADEIRSSTGGVCEPFQMDVKDPAKVAKAFDAVEKKLGHTPDILINNAAGNFIMATERLSPNAYGTIIDIVLKGTLHVTTELGRRCIQQKRGASVLSITTLYAQSGAPFVVPSAVSKAGVENMTKSLASEWAKHGLRFNAIAPGPIPTEGAFGRLFAGELKDSGDAMKASVPVGRLGHPEEIANLAAFMSSDFMSWMNGAIIDFDGGQQHIHHGSHMGQFLHEWDNEKWEETENLIRGRTGKEKKSKL | soluble
MGSDKIHHHHHHMYEENIYIKNSEYEFDNNLKQLASYLNIPVSIVRPYKEDLTLYQYKKGQVIYHSTDQIKFVYFLVNGCILHESSNITGDNYLRLSKDENIFPMNFIFNETPAPYEICTALTDCKILTLPKDLLEYLCRKHNEIFESLFKKLNETIQFQVEYIMALRANSAKERIERILQILCLSIGDDNGEFYELKQIMTVQLISNLSGLNRKTTGEIIRELKTENIIYQDKRNWIIKK | not soluble
MKEVMLFPLTSVVLPEGKMNLRIFEPRYKRMVKECSLQNVGFGVCLVGSEGDPKDVGNVSSIGTLVRIVDFETLSDGLLGITVAGEKRFVIKRVRADSDGLRHAEVEWLDNWQTPSQQLDFGYLSQQLAQVYEQFPQLGTLYQHRFYDDPIWVTQRWLELLPLDSHLFESLVGAQDCRPALRFLNQAIEAPSNKEARILEHHHHHH | soluble
MATWEEYLGAQQANDGVQFTWNMWPHSRVDSQKLVVPLTCFFTPLKERPSTEVAQPPLEYDPVLCQKASCKAILNPLCAVDYRAKIWMCPFCNNRNPFPAHYAAIAEDNRPPELYPQFTTIEYTLRKATTMPPIFVFVVDTCMTAEELKSLKECLQTALSLLPADALVGLITYGRMVQLHELNTQGISRSYVFKGTKEVTAKQIKDVMAGGGLSQRPAAGAPGAPAGAPGAPMAMGSGAAPLGQLPGSGLPGGLPRGGGPPLPGAAQGIVAPGGGAPVPHAPANKFLQPISECDESINDLIDQISIDRWPVPQGHRPLRATGAALAVAVTLLESCFPSTGARIMSFIGGACTHGPGAVVGEELKNPIRSWNSIKEDAAPYMKKAIKFYDGLAARIVKNGHAVDVYSCALDQTGLLEMKNMFNSSGGHVVMGDSFNSSLFKQTYQRSFDKDSAGNLKMGFNATMEVKVGAGLKIEGVLGCCASGNVRNANVSDQEMGIGGTCQWKFGAISPRTTIGVVFEIAAQHGSAIPQGGRGMVQFVTQYQHADGRKRIRVTTTCRTWADMATQQPNIAYGFDQEAAAVAIARLASFRASNENDTPEALRWLDRSLIRLCQKFGEYSKDDPNSFRLSDKFSLFPQFMFHLRRSQFLQVFNNSPDETAYYRHILFSENVLESTTMIQPVLFSYSFNGPPEPVLLDTSSILADRILLMDDYFHVLIYHGQTIAQWRKQNFHENPQYATFKQLLEAPVADATSILQERFPMPRYIVTEHEGSQARFLLSKVNPSLTHNNPYANEAGSAVFTDDVSLQVFMEHLKKLSSSSST | not soluble
